Earlier results, collected in publication PMC3085179.

Biological target: intermediate affinity IL-2 receptor (Homo sapiens) (UniProt P14784)
UniProt P14784, sequence (P14784 27-240, chain 1 of 2): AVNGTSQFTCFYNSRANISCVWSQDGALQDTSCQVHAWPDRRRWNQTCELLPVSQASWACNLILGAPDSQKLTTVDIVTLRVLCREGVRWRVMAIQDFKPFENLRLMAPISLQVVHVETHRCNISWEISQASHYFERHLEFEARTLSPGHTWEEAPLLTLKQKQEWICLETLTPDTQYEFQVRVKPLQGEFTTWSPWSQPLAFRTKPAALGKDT
UniProt P14784, sequence (P31785 23-262, chain 2 of 2, further chain): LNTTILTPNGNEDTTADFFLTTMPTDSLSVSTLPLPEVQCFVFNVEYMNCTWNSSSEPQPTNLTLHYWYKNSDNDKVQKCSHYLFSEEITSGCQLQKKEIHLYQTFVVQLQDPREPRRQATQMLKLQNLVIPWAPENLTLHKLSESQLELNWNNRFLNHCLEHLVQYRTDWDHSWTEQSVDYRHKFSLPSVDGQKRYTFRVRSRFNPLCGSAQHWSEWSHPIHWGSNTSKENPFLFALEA

IL-2, sequence (P60568 21-153): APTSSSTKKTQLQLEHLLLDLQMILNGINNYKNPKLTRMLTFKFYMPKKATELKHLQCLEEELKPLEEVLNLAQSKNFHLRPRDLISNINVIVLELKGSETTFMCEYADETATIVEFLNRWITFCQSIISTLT

Kd: 1 nM
Substance: IL-2 (from UniProt P60568)
